Experimental findings from publication PMC7954794, “Protein context shapes the specificity of SH3 domain-mediated interactions in vivo” (Nature Communications, 2021) are described below.

Holding throughout (format): cell-based, Saccharomyces cerevisiae
In assay [1] the test system is 575 putative partners (preys) of 22 WT SH3-containing proteins. The experiment in a line: DHFR-PCA on solid medium, WT and SH3-deleted baits (Fig. 1B). Details: key to Score: 0: SH3-independent; 1: SH3-dependent PPIs; 2: SH3-inhibited PPIs. The conditions noted are these: for medrep (log2 median colony size normalized to plate background, PCA score): label = prey; for Ratio (SH3-deleted/WT medrep): only significant differences shown, PPIs completely lost have a ratio of 0.1, gained PPIs 2.5. A digest of the protocol:
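In S. cerevisiae, 22 SH3-containing baits fused genomically to DHFR F[1,2], either WT or with each SH3 replaced via CRISPR by a poly-Gly/Ser linker, screened against 575 DHFR F[3] preys plus 40 negative controls in 1536 arrays, preys duplicated at randomized positions.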

A further assay deals with ABP1. Briefly: DHFR-PCA on solid medium, bait ABP1 (Fig. 1B). The following applies: bait ABP1, label = prey; for medrep (log2 median colony size normalized to plate background, PCA score): 2-4 replicates. From the text: Supplement 41467_2021_21873_MOESM8_ESM.xlsx, sheet "Fig1B" | column: medsize; medrep; Ratio; Score
The next assay relates to Lsb3. The experiment in a line: Deep mutational scanning of Abp1 SH3, Abp1-Lsb3 DHFR-PCA (DMS score). The conditions noted are these: Abp1-Lsb3 DHFR-PCA; for lsb3sc: Frequencies scaled to the synonymous mutation distribution (DMS score) / LSB3_MTX2: frequencies normalized to the reference condition / LSB3_MTX2: MTX2; for LSB3_MTX2: frequencies normalized to the reference condition: single amino acid variants of Abp1 SH3; for LSB3_MTX2: frequencies normalized to the reference condition, amino acid level; for lsb3sc (DMS score): frequencies scaled to the synonymous mutation distribution. The procedure:
(§1) Single site mutation libraries were generated by a PCR-based saturation mutagenesis method[50] as described below. The mutagenesis was carried out on the pUC19 plasmid containing the SH3 domain sequence of ABP1 flanked by its homology arms subsequently used in the CRISPR mediated genomic re-integration. We used oligos containing degenerate nucleotides (NNN) to carry out the mutagenesis at each codon of the domain sequence. In the first step of the two-step PCR procedure (short PCR step), an amplicon was generated with an oligo containing the degenerate codon which is positioned within the domain sequence, and another oligo lying outside Abp1 sequence in the plasmid. Short PCR step was carried out with the following settings: 5 min at 95 °C, 35 cycles: 20 s at 98 °C, 15 s at 60 °C, 30 s at 72 °C, and a final extension of 1 min at 72 °C. The amplicon generated in this step was used as a mega primer in the second step (long PCR step) to amplify the whole plasmid. Long PCR step was carried out with the following settings: 5 min at 95 °C, 22 cycles: 20 s at 98 °C, 15 s at 68 °C, 3 min 30 s at 72 °C, and a final extension of 5 min at 72 °C. The long PCR product was digested for 2 h at 37 °C with DpnI. The digestion product was then transformed into E. coli MC1061 competent cells. In order to obtain most of the 64 possible codons, we recovered ~1000 colonies from each plate to retrieve the plasmid single mutant libraries. Saturation mutagenesis was carried out in a codon-position-wise manner. Mutants at each position were stored separately. Library quality control was assessed by amplifying the purified plasmid DNA preparations by PCR followed by Illumina sequencing as described below. The genomic insertion of the mutant libraries (one library per amino acid position) was performed by targeting the stuffer sequence in the ABP1 SH3-deleted strain as described in the strain construction section. ABP1 SH3-deleted yeast competent cells were co-transformed with pCAS containing the stuffer-specific gRNA and PCR amplified ABP1 SH3 single position mutated libraries from the pUC19 preparations. As for the library generation, ~1000 colonies from each plate were retrieved. Glycerol stocks of yeast cells were kept for each position (58 different stocks corresponding to the 58 amino acid positions of Abp1 SH3). The stocks were also validated by Illumina sequencing (see below).
(§2) Liquid DHFR-PCA experiments were performed following the generation of the ABP1 SH3 single position mutated yeast strains and were performed in biological independent duplicates. An overnight culture was started in YPD + NAT by adding the same number of cells from each yeast mutant strain (master pool). Then, the master pool and Hua2-DHFR F[3] or Lsb3-DHFR F[3] preys strains were mixed in YPD (2:1) for mating and incubated for 8 h at 30 °C. Diploid cells were selected the first time by transferring the mixture in a YPD + NAT + HPH (OD 0.5) culture for 16 h at 30 °C. The next day, the first diploid selection was transferred in SC complete pH 6.0 + NAT + HPH at 0.5 OD and the culture was grown for 24 h at 30 °C. The validation of the yeast mutant libraries was done the next day with a fraction of the diploid cells (first DHFR-PCA experiment time point without PCA selection, reference condition S2) by amplifying ABP1 SH3 genomic sequence followed by Illumina sequencing as described in the section below. Following the selection, diploid cells OD was read using a TECAN Infinite F200 Pro, and dilutions to 0.1 OD in PCA selection media without agar in a 50 mL tube was done. Tubes were incubated at 30 °C for 72 h (second-time point of the DHFR-PCA experiment, first PCA selection). A fraction of the cells (5U OD) was collected for Illumina sequencing. The cells from the first PCA step were grown for a second PCA selection step using the same procedures. […]

The next assay has as its system Hua2. Briefly: Deep mutational scanning of Abp1 SH3, Abp1-Hua2 DHFR-PCA (DMS score). The following applies: for hua2sc: Frequencies scaled to the synonymous mutation distribution (DMS score) / HUA2_MTX2: frequencies normalized to the reference condition / HUA2_MTX2 / hua2sc (DMS score): Abp1-Hua2 DHFR-PCA; for hua2sc: Frequencies scaled to the synonymous mutation distribution (DMS score) / HUA2_MTX2: frequencies normalized to the reference condition / HUA2_MTX2: MTX2; for HUA2_MTX2: frequencies normalized to the reference condition: single amino acid variants of Abp1 SH3; for quadrant (effect of mutation on Hua2 and Lsb3 interactions): classification from both Hua2 and Lsb3 DMS scores, Dest. both / Dest. Hua2 / Dest. Lsb3 / Neutral; for HUA2_MTX2: frequencies normalized to the reference condition, amino acid level; for hua2sc (DMS score): frequencies scaled to the synonymous mutation distribution. The procedure: as §1, §2

Setting [2] is: bait SLA1-2, DHFR-PCA, Replicates 4 (2 for YCR009C, YDR388W).
The mark [3] stands for this setting: bait SLA1-3, DHFR-PCA, Replicates 4 (2 for YCR009C, YDR388W, YIL033C).

B1: YCR009C (protein, UniProt P25343 1-265, looked up)
Reduced viability upon …: MSWEGFKKAINRAGHSVIIKNVDKTIDKEYDMEERRYKVLQRAGEALQKEAKGFLDSLRAVTASQTTIAEVISNLYDDSKYVAGGGYNVGNYYLQCVQDFDSETVKQLDGPLRETVLDPITKFSTYFKEIEEAIKKRDHKKQDFDAAKAKVRRLVDKPAKDASKLPRAEKELSLAKDIFENLNNQLKTELPQLVSLRVPYFDPSFEALIKIQLRFCTDGYTRLAQIQQYLDQQSRDDYANGLLDTKIEELLGQMTSLDICALGIK
Turning to B1, the entries for the “medrep (log2 median colony size normalized to plate background, PCA score)” value (in assay [1] (setting [2]); in assay [1] (setting [3]); with ABP1) were 2.15, 2.15 and 4.682, respectively. Also, the Score in assay [1] (bait SLA1-2, label = prey) was determined as 1; in assay [1] (bait SLA1-3, label = prey), 0. Further, the “Ratio (SH3-deleted/WT medrep)” value in assay [1] (bait SLA1-2, label = prey) was 0.1.

B2: ABP1 L48L (protein, UniProt P15891 2-592, looked up)
Actin-binding protein: ALEPIDYTTHSREIDAEYLKIVRGSDPDTTWLIISPNAKKEYEPESTGSSFHDFLQLFDETKVQYGLARVSPPGSDVEKIIIIGWCPDSAPLKTRASFAANFAAVANNLFKGYHVQVTARDEDDLDENELLMKISNAAGARYSIQTSSKQQGKASTPPVKKSFTPSKSPAPVSKKEPVKTPSPAPAAKISSRVNDNNDDDDWNEPELKERDFDQAPLKPNQSSYKPIGKIDLQKVIAEEKAKEDPRLVQKPTAAGSKIDPSSDIANLKNESKLKRDSEFNSFLGTTKPPSMTESSLKNDDDKVIKGFRNEKSPAQLWAERKAKQNSGNAETKAEAPKPEVPEDEPEGEPDVKDLKSKFEGLAASEKEEEEMENKFAPPPKKSEPTIISPKPFSKPQEPVKAEEAEQPKTDYKKIGNPLPGMHIEADNEEEPEENDDDWDDDEDEAAQPPLPSRNVASGAPVQKEEPEQEEIAPSLPSRNSIPAPKQEEAPEQAPEEEIEEEAEEAAPQLPSRSSAAPPPPPRRATPEKKPKENPWATAEYDYDAAEDNELTFVENDKIINIEFVDDDWWLGELEKDGSKGLFPSNYVSLGN
modifications: synonymous codon change L48L
Consider B2, for which, in the assay on Lsb3, the “lsb3sc: Frequencies scaled to the synonymous mutation distribution (DMS score)” value (from here on “lsb3sc: Frequencies scaled”) is -0.4967 and the “LSB3_MTX2: frequencies normalized to the reference condition” value (“LSB3_MTX2: frequencies normalized” for short) is reported as 1.0036. In addition, in the assay on Hua2, the “hua2sc: Frequencies scaled to the synonymous mutation distribution (DMS score)” value (“hua2sc: Frequencies scaled” below) is listed as -0.5549; the “HUA2_MTX2: frequencies normalized to the reference condition” value (“HUA2_MTX2: frequencies normalized” below) is 1.058; the “quadrant (effect of mutation on Hua2 and Lsb3 interactions)” value (shortened to “quadrant”) is listed as “Neutral”.

B3: ABP1 P50P (protein, UniProt P15891 2-592, looked up)
Actin-binding protein: B2 Actin-binding protein
modifications: synonymous codon change P50P
Turning to B3, in the assay on Lsb3, the “lsb3sc: Frequencies scaled” value is listed as -0.6263 and the “LSB3_MTX2: frequencies normalized” value is listed as 0.874. In addition, in the assay with Hua2, the “hua2sc: Frequencies scaled” value is on record as -0.6569; the “HUA2_MTX2: frequencies normalized” value is recorded as 0.9559; the “quadrant” value is “Neutral”.

B4: ABP1 S51S (protein, UniProt P15891 2-592, looked up)
Actin-binding protein: B2 Actin-binding protein
modifications: synonymous codon S51S
In the case of B4, in the assay with Lsb3, the “lsb3sc: Frequencies scaled” value worked out at 0.05209 and the “LSB3_MTX2: frequencies normalized” value stood at 1.552. Further, in the assay on Hua2, the “hua2sc: Frequencies scaled” value was -0.02064; the “HUA2_MTX2: frequencies normalized” value stood at 1.592; the “quadrant” value is “Neutral”.

B5: ABP1 Y53Y (protein, UniProt P15891 2-592, looked up)
Actin-binding protein: B2 Actin-binding protein
modifications: synonymous codon change Y53Y
Consider B5, for which, in the assay with Lsb3, the “lsb3sc: Frequencies scaled” value was -0.1658 and the “LSB3_MTX2: frequencies normalized” value came to 1.335. In the assay with Hua2, the “hua2sc: Frequencies scaled” value is reported as -0.26; the “HUA2_MTX2: frequencies normalized” value is on record as 1.353; the “quadrant” value is reported as “Neutral”.

B6: ABP1 T18T (protein, UniProt P15891 2-592, looked up)
Actin-binding protein: B2 Actin-binding protein
modifications: synonymous codon change T18T
For the molecule B6, in the assay on Lsb3, the LSB3_MTX2 is reported as 1.406 and the “lsb3sc (DMS score)” value was -0.09387. Besides, in the assay on Hua2, the HUA2_MTX2 was determined as 1.603 and the “hua2sc (DMS score)” value was -0.009347.

B7: ABP1 F19F (protein, UniProt P15891 2-592, looked up)
Actin-binding protein: B2 Actin-binding protein
modifications: synonymous codon change F19F
B7: in the assay on Lsb3, the LSB3_MTX2 was 1.966 and the “lsb3sc (DMS score)” value was found to be 0.4657. In the assay on Hua2, the HUA2_MTX2 worked out at 2.091 and the “hua2sc (DMS score)” value is reported as 0.4783.

B8: ABP1 F49F (protein, UniProt P15891 2-592, looked up)
Actin-binding protein: B2 Actin-binding protein
modifications: synonymous F49F
Consider B8, for which, in the assay with Lsb3, the “lsb3sc: Frequencies scaled” value is recorded as -0.3759 and the “LSB3_MTX2: frequencies normalized” value came to 1.124. For the same molecule, in the assay with Hua2, the “hua2sc: Frequencies scaled” value was found to be 0.1177; the “HUA2_MTX2: frequencies normalized” value turned out to be 1.73; the “quadrant” value is reported as “Neutral”.

B9: YFR004W (protein, UniProt P43588 1-306, looked up)
Ubiquitin carboxyl-terminal …: MERLQRLMMNSKVGSADTGRDDTKETVYISSIALLKMLKHGRAGVPMEVMGLMLGEFVDDYTVNVVDVFAMPQSGTGVSVEAVDDVFQAKMMDMLKQTGRDQMVVGWYHSHPGFGCWLSSVDVNTQKSFEQLNSRAVAVVVDPIQSVKGKVVIDAFRLIDTGALINNLEPRQTTSNTGLLNKANIQALIHGLNRHYYSLNIDYHKTAKETKMLMNLHKEQWQSGLKMYDYEEKEESNLAATKSMVKIAEQYSKRIEEEKELTEEELKTRYVGRQDPKKHLSETADETLENNIVSVLTAGVNSVAIK
Consider B9, for which the “medrep (log2 median colony size normalized to plate background, PCA score)” value is reported as 2.485 in assay [1] (setting [2]), 2.485 in assay [1] (setting [3]) and 3.9898 in the assay with ABP1. Besides, the Score in assay [1] (bait SLA1-2, label = prey) turned out to be 1; in assay [1] (bait SLA1-3, label = prey), 0. The “Ratio (SH3-deleted/WT medrep)” value in assay [1] (bait SLA1-2, label = prey) came out at 0.1; with ABP1 (only significant differences showed, PPIs completely lost have a ratio of 0.1 and the gained PPIs 2.5) it was 1.738.
